Here are results for 1 molecule from publication PMC7791067, “PLPP/CIN-mediated NF2-serine 10 dephosphorylation regulates F-actin stability and Mdm2 degradation in an activity-dependent manner” (Cell Death & Disease, 2021).

In this assay the target is T1, full-length recombinant human NF2, phosphorylated by PKAc (human, UniProt P35240 1-595, phosphoserine at S10 and S518 (phosphorylated by PKAc in vitro)).
T1 sequence (looked up): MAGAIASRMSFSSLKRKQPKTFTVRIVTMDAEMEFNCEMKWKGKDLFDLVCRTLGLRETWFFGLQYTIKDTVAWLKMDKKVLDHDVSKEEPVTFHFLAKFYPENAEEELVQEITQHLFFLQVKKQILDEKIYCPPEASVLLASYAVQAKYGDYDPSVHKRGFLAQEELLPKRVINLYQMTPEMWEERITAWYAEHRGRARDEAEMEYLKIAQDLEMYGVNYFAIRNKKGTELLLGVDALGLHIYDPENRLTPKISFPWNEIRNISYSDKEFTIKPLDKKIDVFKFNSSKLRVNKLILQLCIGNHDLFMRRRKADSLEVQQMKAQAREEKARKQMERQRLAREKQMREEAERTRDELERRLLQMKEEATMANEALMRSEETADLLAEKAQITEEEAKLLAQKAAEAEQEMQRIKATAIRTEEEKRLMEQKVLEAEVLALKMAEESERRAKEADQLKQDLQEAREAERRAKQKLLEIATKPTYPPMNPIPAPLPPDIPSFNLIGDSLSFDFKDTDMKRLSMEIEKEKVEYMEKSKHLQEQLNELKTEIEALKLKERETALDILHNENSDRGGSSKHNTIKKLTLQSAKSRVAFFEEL
Put plainly: cell-based or functional assay.

B1: recombinant human PLPP/CIN (enzyme, UniProt Q96GD0 1-296, looked up)
chain: MARCERLRGAALRDVLGRAQGVLFDCDGVLWNGERAVPGAPELLERLARAGKAALFVSNNSRRARPELALRFARLGFGGLRAEQLFSSALCAARLLRQRLPGPPDAPGAVFVLGGEGLRAELRAAGLRLAGDPSAGDGAAPRVRAVLVGYDEHFSFAKLREACAHLRDPECLLVATDRDPWHPLSDGSRTPGTGSLAAAVETASGRQALVVGKPSPYMFECITENFSIDPARTLMVGDRLETDILFGHRCGMTTVLTLTGVSRLEEAQAYLAAGQHDLVPHYYVESIADLTEGLED
In the case of B1, the “NF2-S10 phosphorylation (western blot) in the in vitro phosphatase assay with recombinant proteins, after PKAc” value was ~0.63 fold of vehicle level.
